The values that follow come from PMC10333360, “Establishing mammalian GLUT kinetics and lipid composition influences in a reconstituted-liposome system” (Nature Communications, 2023).

Substrate in data set [1]: OC[C@H]1OC(O)[C@H](O)[C@@H](O)[C@@H]1O
In words: purified protein.

Substrate in data set [2]: OC[C@H]1OC(O)[C@H](O)[C@@H](O)[C@@H]1O
In words: zero-trans transport kinetics in proteoliposomes (KM). Type of data set: biochemical, Homo sapiens.

B1: hGLUT3 (Homo sapiens) (protein)
chain: MGTQKVTPALIFAITVATIGSFQFGYNTGVINAPEKIIKEFINKTLTDKGNAPPSEVLLTSLWSLSVAIFSVGGMIGSFSVGLFVNRFGRRNSMLIVNLLAVTGGCFMGLCKVAKSVEMLILGRLVIGLFCGLCTGFVPMYIGEISPTALRGAFGTLNQLGIVVGILVAQIFGLEFILGSEELWPLLLGFTILPAILQSAALPFCPESPRFLLINRKEEENAKQILQRLWGTQDVSQDIQEMKDESARMSQEKQVTVLELFRVSSYRQPIIISIVLQLSQQLSGINAVFYYSTGIFKDAGVQEPIYATIGAGVVNTIFTVVSLFLVERAGRRTLHMIGLGGMAFCSTLMTVSLLLKDNYNGMSFVCIGAILVFVAFFEIGPGPIPWFIVAELFSQGPRPAAMAVAGCSNWTSNFLVGLLFPSAAHYLGAYVFIIFTGFLITFLAFTFFKVPETRGRTFEDITRAFEGQAHGADRSGKDGVMEMNSIEPAKETTTNV
As to B1, in data set [1], the Km stood at 1400 µM.

B2: GLUT1 (Homo sapiens) (protein)
chain: MEPSSKKLTGRLMLAVGGAVLGSLQFGYNTGVINAPQKVIEEFYNQTWVHRYGESILPTTLTTLWSLSVAIFSVGGMIGSFSVGLFVNRFGRRNSMLMMNLLAFVSAVLMGFSKLGKSFEMLILGRFIIGVYCGLTTGFVPMYVGEVSPTALRGALGTLHQLGIVVGILIAQVFGLDSIMGNKDLWPLLLSIIFIPALLQCIVLPFCPESPRFLLINRNEENRAKSVLKKLRGTADVTHDLQEMKEESRQMMREKKVTILELFRSPAYRQPILIAVVLQLSQQLSGINAVFYYSTSIFEKAGVQQPVYATIGSGIVNTAFTVVSLFVVERAGRRTLHLIGLAGMAGCAILMTIALALLEQLPWMSYLSIVAIFGFVAFFEVGPGPIPWFIVAELFSQGPRPAAIAVAGFSNWTSNFIVGMCFQYVEQLCGPYVFIIFTVLLVLFFIFTYFKVPETKGRTFDEIASGFRQGGASQSDKTPEELFHPLGADSQV
For the protein B2, the Km in data set [1] came to 2000 µM.

B3: hGLUT4 (Homo sapiens) (protein)
chain: MPSGFQQIGSEDGEPPQQRVTGTLVLAVFSAVLGSLQFGYNIGVINAPQKVIEQSYNETWLGRQGPEGPSSIPPGTLTTLWALSVAIFSVGGMISSFLIGIISQWLGRKRAMLVNNVLAVLGGSLMGLANAAASYEMLILGRFLIGAYSGLTSGLVPMYVGEIAPTHLRGALGTLNQLAIVIGILIAQVLGLESLLGTASLWPLLLGLTVLPALLQLVLLPFCPESPRYLYIIQNLEGPARKSLKRLTGWADVSGVLAELKDEKRKLERERPLSLLQLLGSRTHRQPLIIAVVLQLSQQLSGINAVFYYSTSIFETAGVGQPAYATIGAGVVNTVFTLVSVLLVERAGRRTLHLLGLAGMCGCAILMTVALLLLERVPAMSYVSIVAIFGFVAFFEIGPGPIPWFIVAELFSQGPRPAAMAVAGFSNWTSNFIIGMGFQYVAEAMGPYVFLLFAVLLLGFFIFTFLRVPETRGRTFDQISAAFHRTPSLLEQEVKPSTELEYLGPDEND
As for B3, the Michaelis constant (Km) in data set [2] was 8200 µM.

Broadly, the Km is the substrate concentration at which the rate is half of its maximum.
